# Measured values reported in a protein production outcome set (Wang et al. 2014).
# Experiment: label from the status in PepcDB records
row,Sequence,protein production
1,SLRPPLPPATPQEVQFVQHMLQHHAQALDLAAPMLERSQQRTVRSLALDIQLSQREQMRQMEAMLGRWGQPPGEPISPEHARMMGMASEAEVAGLSTLPVEQAERQFLRLMIRHHQGAVAMTLPMLDAAARPEVERLARQIVVTQRGEIRTMEGVLGRLDGEVPAAPMRPVEHGHGH,not failed
2,SMLSRAKPAVGGESPHTDKRKKKGRKIPKLEDLLSQRDFTGAITLLEFKRHVGEQEDDTNLWIGYCAFHLGDYKRALEEYENATKEENCNPEVWVNLACTYFFLGMYKQAEAAGFKAPKSRLQNRLLFHLAHKFNDEKKLMNFHQNLQDIKEDQLSLASNSEIHLPLPPECWD,failed
3,SNKLYIGNLSPAVTADDLRQLFGDRKLPLAGQVLLKSGYAFVDYPDQNWAIRAIETLSGKVELHGKIMEVDYSVSKKLRSRKIQIRNIPPHLQWEVLDGLLAQYGTVENVEQVNTDTETAVVNVTYATREEAKIAMEKLSGHQFENYSFKISYIPDEEVSSPSPPQRAQRGDHSSREQGHAPGGTSQARQIDFPLRILVPTQFVGAIIGKEGLTIKNITKQTQSRVDIHRKENSGAAEKPVTIHATPEGTSEACRMILEIMQKEADETKLAEEIPLKILAHNGLVGRLIGKEGRNLKKIEHETGTKITISSLQDLSIYNPERTITVKGTVEACASAEIEIMKKLREAFENDMLAVNQQANLIPGLNLSALGIFSTGLSVLSPPAGPRGAPPAAPYHPFTTHSGYFSSLYPHHQFGPFPHHHSYPEQEIVNLFIPTQAVGAIIGKKGAHIKQLARFAGASIKIAPAEGPDVSERMVIITGPPEAQFKAQGRIFGKLKEENFFNPKEEVKLEAHIRVPSSTAGRVIGKGGKTVNELQNLTSAEVIVPRDQTPDENEEVIVRIIGHFFASQTAQRKIREIVQQVKQQEQKYPQGVASQRSK,not failed
4,SNSALYNVDAGHRAVIFDRFRGVQDIVVGEGTHFLIPWVQKPIIFDCRSRPRNVPVITGSKDLQNVNITLRILFRPVASQLPRIYTSIGEDYDERVLPSITTEILKSVVARFDAGELITQRELVSRQVSDDLTERAATFGLILDDVSLTHLTFGKEFTEAVEAKQVAQQEAERARFVVEKAEQQKKAAIISAEGDSKAAELIANSLATAGDGLIELRKLEAAEDIAYQLSRSRNITYLPAGQSVLLQLPQ,not failed
5,SPAYQEDREEDTCTIGEREKTIATQRIKGFGVENPVLPESPPASMSSVMKNNPLYGDITLEEAMEERKKSPSWTIEEYDKHSVHTNLSGHLKENPNDLRFWLGDTYTPGFDTLLKKKKKRNKRSKLCHMGLILLLVASILVTIVTLSTIFS,failed
6,SPFDTGPELESQIRNQYGVDVHVVPVLDTLNEAETLDRVAMQAARTIGPLVDSNAIIGVAWGATLSAVSRHLTRKMTHDSIVVQLNGAGNMQTTGITYASDIMRRFGSAYGARVEQFPVPAFFDHASTKTAMWNERSVQRILDLQARMSIAIFGVGSVDSDYPSHVYAGGYLDEHDLTMLAADDVVGDVATVFFRSDGSSDGITLNERSTGPSHEQLRQVRRRICVVSGASKINGLQGALAAGLATDLILDEASARRLVSFNGH,not failed
7,SQEANYGALLRELCLTQFQVDMEAVGETLWCDWGRTIRSYRELADCTWHMAEKLGCFWPNAEVDRFFLAVHGRYFRSCPISGRAVRDPPGSILYPFIVVPITVTLLVTALVVWQSKRTEGIV,failed
8,SQEQAQTTDWRATLKTIRNGVHKIDTYLNAALDLLGGEDGLCQYKCSDGSKPFPRYGYKPSPPNGCGSPLFGVHLNIGIPSLTKCCNQHDRCYETCGKSKNDCDEEFQYCLSKICRDVQKTLGLTQHVQACETTVELLFDSVIHLGCKPYLDSQRAACRCHYEEKTDL,not failed
9,SQFVLQDLQDATLGSLLSSLMQHCDPPQRKYPLEKGTPPPWWPTGNEEWWVKLGLPKSQSPPYRKPHDLKKMWKVGVLTAVINHMLPDIAKIKRHVRQSKCLQDKMTAKESAIWLAVLNQEESLIQQ,not failed
10,SQSLKPEPFGRRAQAVETNKTLHEMKTRFLLFGETNQGCQIRINHPDTLQECGFNSSLPLVMIIHGWSVDGVLENWIWQMVAALKSQPAQPVNVGLVDWITLAHDHYTIAVRNTRLVGKEVAALLRWLEESVQLSRSHVHLIGYSLGAHVSGFAGSSIGGTHKIGRITGLDAAGPLFEGSAPSNRLSPDDANFVDAIHTFTREHMGLSVGIKQPIGHYDFYPNGGSFQPGCHFLELYRHIAQHGFNAITQTIKCSHERSVHLFIDSLLHAGTQSMAYPCGDMNSFSQGLCLSCKKGRCNTLGYHVRQEPRSKSKRLFLVTRAQSPFKVYHYQLKIQFINQTETPIQTTFTMSLLGTKEKMQKIPITLGKGIASNKTYSFLITLDVDIGELIMIKFKWENSAVWANVWDTVQTIIPWSTGPRHSGLVLKTIRVKAGETQQRMTFCSENTDDLLLRPTQEKIFVKCEIKSKTSKRKIR,failed
11,SQVDDWIVGLEVEIFTFDGKEYRGIVYTYDADANCVVLARKSQDSLKSDLRILKASLVKNINVLGRSNVDQLPQQLSPLNLEALKMREEQALQKARKDLARTGVGVSQQAQEIFDALCKTLPCQWEEDSIVIFENIKLKKPYRVEDLDEIEAVNRVKVVLENELQKLQRRNT,not failed
12,SSAQFDHVTVIKKSNVYFGGLCISHTVQFEDGTKKTLGVILPTEQPLTFETHVPERMEIISGECRVKIADSTESELFRAGQSFYVPGNSLFKIETDEVLDYVCHLE,failed
13,SSFQGPLDATVVVNLQSPTLEEKNEFPEDLRTELMQTLGSYGTIVLVRINQGQMLVTFADSHSALSVLDVDGMKVKGRAVKI,not failed
14,SSHQPLSCLTEKEDSPSESTGNGPPHLAHPNLDTFTPEELLQQMKELLTENHQLKEAMKLNNQAMKGRFEELSAWTEKQKEERQFFEIQSKEAKERLMALSHENEKLKEELGKLKGKSERSSEDPTDDSRLPRAEAEQEKDQLRTQVVRLQAEKADLLGIVSELQLKLNSSGSSEDSFVEIRMAEGEAEGSVKEIKHSPGPTRTVSTGTSRSADGAKNYFEHEELTVSQLLLCLREGNQKVERLEVALKEAKERVSDFEKKTSNRSEIETQTEGSTEKENDEEKGPETVGSEVEALNLQVTSLFKELQEAHTKLSEAELMKKRLQEKCQALERKNSAIPSELNEKQELVYTNKKLELQVESMLSEIKMEQAKTEDEKSKLTVLQMTHNKLLQEHNNALKTIEELTRKESEKVDRAVLKELSEKLELAEKALASKQLQMDEMKQTIAKQEEDLETMTILRAQMEVYCSDFHAERAAREKIHEEKEQLALQLAVLLKENDAFEDGGRQSLMEMQSRHGARTSDSDQQAYLVQRGAEDRDWRQQRNIPIHSCPKCGEVLPDIDTLQIHVMDCII,failed
15,SSNYPRCWNCGGPWGPGREDRFFCPQCRALQAPDPTRDYFSLMDCNRSFRVDTAKLQHRYQQLQRLVHPDFFSQRSQTEKDFSEKHSTLVNDAYKTLLAPLSRGLYLLKLHGIEIPERTDYEMDRQFLIEIMEINEKLAEAESEAAMKEIESIVKAKQKEFTDNVSSAFEQDDFEEAKEILTKMRYFSNIEEKIKLKKIPL,failed
16,SSSDVVTLTVGATPSPHAKILTYINDNLAADAGIKLDIVEYTDYVQPNTALNDGDLDANFYQTVPYLENAEKQFGYNFEAGEGIHLEPLGVFSNKHKSLDELPDGGTIGIISDTANQSRALELLATQGLVSIPEGDGDVNINTVTKLKNFDFREVEGPQLVRSLDDFDYAVINGNFAQEGGKTISGDALVVESPVDNPAVNVLVWKGDSKKVDAIAKLEKLLHSDEVKQYIEKTWSDGSVIPAF,not failed
17,SSSSSSVPAYLGDEDLTQETRALISSLPKEKGWLVSEIYEFQGLWHTQAILQGILICQKRFEAKDSDIILVTNPKSGTTWLKALVFALLNRHKFPVSSSGNHPLLVTNPHLLVPFLEGVYYESPDFDFSSLPSPRLMNTHISHLSLPESVKSSSCKIVYCCRNPKDMFVSLWHFGKKLAPEETADYPIEKAVEAFCEGKFIGGPFWDHILEYWYASRENPNKVLFVTYEELKKQTEVEMKRIAEFLECGFIEEEEVREIVKLCSFESLSNLEVNKEGKLPNGIETKTFFRKGEIGGWRDTLSESLAEEIDRTIEEKFKGSGLKFSS,not failed
18,SSTQGWADGLLTDIAHVRAHISDEFLFSSASTLNEIALAADIEERTQSVDVFLGNSLFVRLVDMFGRLNTEVFTNRGASGIDGLFATASGVQRSRGKPLLMYIGDTSALYDLNSLALFSRNDLPSVLVVTNNDGGAIFDMLPVPQEHRTAYYQMPHGYQFEHAAKQFGLKYEKPTTLQMYQAMVADHLSSGQGTMLVEVQTPPSQAAELIKAFNKSLHASL,failed
